Assay results published in patent US20210338809A1, “Immune Tolerance-Inducing Agent and Therapeutic or Prophylactic Agent for Allergic Disorder” (Tokushima University, priority 2018, published 2021).

Tests used:
[1] = tested on: casein transdermally sensitized mice; assay: Anaphylaxis-eliciting test by intraperitoneal challenge with casein after prophylactic immunization and casein transdermal sensitization; type: in vivo, mouse; details: subcutaneous injection 1 μg casein twice before sensitization
[2] = tested on: OVA transdermally sensitized model mice; assay: Anaphylaxis-eliciting test using aspirin pre-administration and oral OVA challenge, rectal temperature monitoring; type: in vivo, mouse; details: for change in rectal temperature: from 30 minutes after challenge
Protocol: Balb/c mice (6-7 weeks old, female) were subjected to hair removal on the back of the head with hair clippers, then, 100 μL of aqueous SDS solution (4%) was uniformly applied to damage their skin barrier function, and after 10 minutes, 100 μL of an aqueous solution of ovomucoid (OVM) (manufactured by NACALAI TESQUE, INC.) (10 mg/mL), 100 μL of an aqueous solution of ovalbumin (OVA) (manufactured by Sigma-Aldrich) (10 mg/mL), or 100 μL of an aqueous solution of casein (manufactured by Sigma-Aldrich) (10 mg/mL) was uniformly applied. Such allergen applications were carried out a total of 10 times (for 2 weeks with a frequency of 5 times/week) to generate a transdermally sensitized food allergic mouse model against OVM, OVA, or casein. The mice 10-14 days after transdermal sensitization were subjected to the following experiments.
In accordance with the schedule shown in FIG. 1, the present inventors performed two types of loadings of “ASA pre-administration” and “allergen oral administration” in combination on the allergen transdermally sensitized mouse model of the present invention to examine whether anaphylaxis could be reliably elicited. Experimental procedures and results are shown in the following (1) to (4).
The OVA transdermally sensitized model mice (body weight of about 20 g) of the present invention were fasted for 2 hours or more and then oral administration of ASA (manufactured by Sigma-Aldrich) dissolved in 50% ethanol (1.25 mg/100 μL/mouse) was performed. Also, as a control, a group was provided to which oral pre-administration of 50% ethanol alone without ASA was performed.
Thirty minutes after the pre-administration of ASA or ethanol, an aqueous OVA solution (manufactured by Sigma-Aldrich) was orally challenged (20 mg/100 μL/mouse). In addition, as a control, a group was provided to which only water (without OVA) was orally administered.
In this experiment, rectal temperatures were measured at 10-minute intervals starting from 10 minutes before OVA administration and for 90 to 120 minutes after administration. Then, the temperature change after OVA administration was monitored using the temperature 10 minutes before OVA administration as a reference value. It was determined that the mouse developed anaphylaxis when the rectal temperature decreased by 1° C. or more relative to the reference value.

[3] = tested on: transdermally sensitized OVM allergic mouse model; assay: Anaphylaxis-eliciting test with trace amount of OVM alone; type: in vivo
Protocol: Specifically, the transdermally sensitized OVM allergic mouse model (body weight of about 20 g, n=10) was subjected to fasting and ASA administration before the challenge test in accordance with the procedures of Example 2. Then an oral OVM challenge test was performed. The oral OVM challenge test was performed by orally challenging with 0.01 μg of OVM once and examining change in rectal temperature for 60 minutes.

casein
rectal temperature decrease in the other four cases [1]: worsening tendency
improvement of rectal temperature decrease after intraperitoneal challenge test ([1]; n=5): only one case

CC(=O)Oc1ccccc1C(=O)O [ASA/50% ethanol, acetylsalicylic acid, reference compound]
change in rectal temperature [2]: tendency of increase

B1: ovalbumin (protein, UniProt P01012 2-386, looked up)
Ovalbumin: GSIGAASMEFCFDVFKELKVHHANENIFYCPIAIMSALAMVYLGAKDSTRTQINKVVRFDKLPGFGDSIEAQCGTSVNVHSSLRDILNQITKPNDVYSFSLASRLYAEERYPILPEYLQCVKELYRGGLEPINFQTAADQARELINSWVESQTNGIIRNVLQPSSVDSQTAMVLVNAIVFKGLWEKAFKDEDTQAMPFRVTEQESKPVQMMYQIGLFRVASMASEKMKILELPFASGTMSMLVLLPDEVSGLEQLESIINFEKLTEWTSSNVMEERKIKVYLPRMKMEEKYNLTSVLMAMGITDVFSSSANLSGISSAESLKISQAVHAAHAEINEAGREVVGSAEAGVDAASVSEEFRADHPFLFCIKHIATNAVLFFGRCVSP
notes: ovalbumin, egg allergen
decrease in rectal temperature ([2]; 10 minutes after oral OVA challenge): around 1.1 °C
elicitation of anaphylaxis ([2]; oral OVA challenge 20 mg/mouse): extremely mild

B2: 50% ethanol+OVA: 50% ethanol alone pre-administered, followed by oral OVA challenge (protein, UniProt P01012 2-386, looked up)
Ovalbumin: GSIGAASMEFCFDVFKELKVHHANENIFYCPIAIMSALAMVYLGAKDSTRTQINKVVRFDKLPGFGDSIEAQCGTSVNVHSSLRDILNQITKPNDVYSFSLASRLYAEERYPILPEYLQCVKELYRGGLEPINFQTAADQARELINSWVESQTNGIIRNVLQPSSVDSQTAMVLVNAIVFKGLWEKAFKDEDTQAMPFRVTEQESKPVQMMYQIGLFRVASMASEKMKILELPFASGTMSMLVLLPDEVSGLEQLESIINFEKLTEWTSSNVMEERKIKVYLPRMKMEEKYNLTSVLMAMGITDVFSSSANLSGISSAESLKISQAVHAAHAEINEAGREVVGSAEAGVDAASVSEEFRADHPFLFCIKHIATNAVLFFGRCVSP
modifications: after 50% ethanol pretreatment
change in rectal temperature [2]: increase

B3: ovomucoid (protein, UniProt P01005 25-210, looked up)
Ovomucoid: AEVDCSRFPNATDKEGKDVLVCNKDLRPICGTDGVTYTNDCLLCAYSIEFGTNISKEHDGECKETVPMNCSSYANTTSEDGKVMVLCNRAFNPVCGTDGVTYDNECLLCAHKVEQGASVDKRHDGGCRKELAAVSVDCSEYPKPDCTAEDRPLCGSDNKTYGNKCNFCNAVVESNGTLTLSHFGKC
induction of anaphylaxis ([3]; 0.01 μg OVM alone orally): does not induce anaphylaxis
rectal temperature after administration ([3]; 0.01 μg OVM alone orally once, 60 minutes, n=10, ASA pre-administered): did not decrease
